This note sets out measurements from publication PMC1698263.

This data set has as its target FMRP (fragile X mental retardation protein) (human, UniProt Q06787 1-632). As to the kind of experiment: EMSA; FMRP 0.35-1.4 ug; 0.50 pmol RNA; FMRP EMSA: 30 min on ice, 6% nondenaturing PAGE; buffer, salt and pH not given (cited ref 18). Strand annealing assays (FMRP, I304N, dKHT, FXR1P) read RNA:RNA a.

Consider UAGGUAGUUUCAUGUUGUUGG (ssRNA) [hsa-miR-196a-1 mature miRNA], for which the binding result was “binds”.
